The values that follow are results of earlier work, collected in article PMC12026706.

Some targets named below: MD2 (Homo sapiens) (UniProt Q9Y6Y9); IL-6R (Homo sapiens) (UniProt P08887); TLR4 (Homo sapiens) (UniProt O00206); TREM-1 (Homo sapiens) (UniProt Q9NP99).
What all share (experiment): BIAcore SPR
On the technique in general: Surface plasmon resonance follows binding to a sensor surface in real time, without labels.

Data set [1] addresses TLR4/MD2 complex (Homo sapiens) (UniProt O00206).

Chain of eCIRP (Q14011 whole entry): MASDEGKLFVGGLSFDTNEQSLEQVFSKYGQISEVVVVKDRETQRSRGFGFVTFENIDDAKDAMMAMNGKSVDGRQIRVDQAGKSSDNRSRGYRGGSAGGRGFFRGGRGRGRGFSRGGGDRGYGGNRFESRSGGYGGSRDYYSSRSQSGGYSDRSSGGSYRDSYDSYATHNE
Chain of TLR4/MD2 complex (Homo sapiens) (O00206 24-839, chain 1 of 2): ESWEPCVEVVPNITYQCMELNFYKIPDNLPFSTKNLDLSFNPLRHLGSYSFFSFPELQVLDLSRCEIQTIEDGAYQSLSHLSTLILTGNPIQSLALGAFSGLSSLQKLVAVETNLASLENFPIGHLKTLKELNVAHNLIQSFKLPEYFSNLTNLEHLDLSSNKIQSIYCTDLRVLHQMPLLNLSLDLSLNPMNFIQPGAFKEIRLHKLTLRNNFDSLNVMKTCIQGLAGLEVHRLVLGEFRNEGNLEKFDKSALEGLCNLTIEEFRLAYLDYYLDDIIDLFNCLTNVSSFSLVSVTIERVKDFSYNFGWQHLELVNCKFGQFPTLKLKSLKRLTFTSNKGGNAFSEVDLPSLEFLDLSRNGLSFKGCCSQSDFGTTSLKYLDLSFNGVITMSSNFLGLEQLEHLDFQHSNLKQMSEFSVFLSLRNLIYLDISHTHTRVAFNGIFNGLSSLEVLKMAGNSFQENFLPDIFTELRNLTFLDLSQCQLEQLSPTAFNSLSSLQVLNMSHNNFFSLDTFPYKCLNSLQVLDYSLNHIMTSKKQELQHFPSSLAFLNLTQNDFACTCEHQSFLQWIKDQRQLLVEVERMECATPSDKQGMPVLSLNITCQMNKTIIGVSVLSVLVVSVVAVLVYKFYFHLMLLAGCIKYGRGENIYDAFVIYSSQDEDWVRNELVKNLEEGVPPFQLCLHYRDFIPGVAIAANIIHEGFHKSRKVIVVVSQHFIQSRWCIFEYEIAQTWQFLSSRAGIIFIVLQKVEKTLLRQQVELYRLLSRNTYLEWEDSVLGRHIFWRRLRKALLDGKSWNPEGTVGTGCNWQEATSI
Chain of TLR4/MD2 complex (Homo sapiens) (Q9Y6Y9 19-160, chain 2 of 2, further chain): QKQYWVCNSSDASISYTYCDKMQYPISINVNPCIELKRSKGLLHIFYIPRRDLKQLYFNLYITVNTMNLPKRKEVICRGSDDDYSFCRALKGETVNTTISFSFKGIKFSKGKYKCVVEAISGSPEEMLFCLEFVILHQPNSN
Chain of TLR4 (Homo sapiens) (O00206 24-839): as the sequence (O00206 24-839, chain 1 of 2) above
Chain of IL-6R (Homo sapiens) (P08887 20-355): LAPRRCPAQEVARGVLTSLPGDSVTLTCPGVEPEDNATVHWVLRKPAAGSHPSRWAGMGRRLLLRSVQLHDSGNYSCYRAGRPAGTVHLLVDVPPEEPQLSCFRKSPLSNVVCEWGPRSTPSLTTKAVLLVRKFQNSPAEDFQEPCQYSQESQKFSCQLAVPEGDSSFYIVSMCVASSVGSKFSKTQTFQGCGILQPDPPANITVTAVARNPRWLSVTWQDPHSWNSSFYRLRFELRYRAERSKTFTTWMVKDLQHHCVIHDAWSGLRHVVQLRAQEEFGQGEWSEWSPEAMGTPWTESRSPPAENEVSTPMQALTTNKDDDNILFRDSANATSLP
Chain of MD2 (Homo sapiens) (Q9Y6Y9 19-160): as the sequence (Q9Y6Y9 19-160, chain 2 of 2, further chain) above
Chain of TREM-1 (Homo sapiens) (Q9NP99 21-234): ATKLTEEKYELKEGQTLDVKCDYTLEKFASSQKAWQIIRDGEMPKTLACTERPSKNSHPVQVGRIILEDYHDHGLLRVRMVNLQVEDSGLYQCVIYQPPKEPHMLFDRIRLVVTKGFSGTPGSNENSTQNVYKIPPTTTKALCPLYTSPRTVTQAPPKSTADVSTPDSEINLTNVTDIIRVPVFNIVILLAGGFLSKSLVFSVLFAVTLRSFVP

Broadly, the Kd is the concentration at which binding is half-saturated. eCIRP (from UniProt Q14011): the equilibrium dissociation constant (Kd) in data set [1] is 239 nM; in the data set with MD2 (Homo sapiens) it was 302 nM; in the data set with IL-6R (Homo sapiens), 98 nM; with TLR4 (Homo sapiens), 617 nM; with TREM-1 (Homo sapiens), 117 nM.
